Measurements from the domain aggregation screens of Martell et al. (2025).

Assay: soluble fraction after stress (log2 fold change); higher = more stays soluble; pooled small domains, quantitative proteomics
Conditions: stress: 50 degC
In short: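 Quantitative proteomics served as the high-throughput read-out for pooled custom libraries of small protein domains. Each was stressed at 50°C. Aggregation propensity is expressed as the base-two log fold change in soluble protein after stress. A higher value means a larger share of the protein remains in solution.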

Sequence | soluble fraction (log2)
HMEITTEDIAAQVASWIVRLSEDLTSTDRAALQIEFEQWQQTDSRRAEIAHKMLSLIGQAEQLRKT | -0.207
HMWMEKEELLWNDIIRGGVERGELREDTDIQEAAALFRQVFIGLAYQMSFSDGLDVGILRKRFHHIYGLLT | 0.0187
HMRIYFSPSEIGFYHESDKQAYLLAGTWPNDLLEISEKWFLYLLEGQQKGKVITVNDYDQPVLVD | -3.31
HMDNNFIQSLYPIAIGISKNQLDPWDLINGWVEYYLKNKEKYINHPNLKAVAVLKMKGLLIDHFRKS | -3.57
HMNNIGSKIKSAKILNNLDDNQLSEITGIDKLQLRSIQDGQVNPTKMELEIISKALKLPTNYFTK | -0.0222
HMQGRIYLNPDLAEKLRAQYAAYPHWSYLLHTENLGALVRKTESLGPMPSYSTILRYMHANDMRKRNKP | -1.6
HMKKTDFNVENYDIEELAAILNFKYVPLNQGLIRDRIKDMKQRFKNKPEYIKFFTDVEIKLVNNLNLFN | -1.24
HMSDFSNLNLLELNSSELDLLLRRASSQGLTQMDLLKMARSQGLSEADLIKVKGKIDTSESIKR | -0.0148
HMVDQVDKDRFLEALTQLGGSAGNVRLRETLQWEEEVYVIIKDALVKSGTILTGRGRGGSVLLASA | -1.12
HMVQPSAAVRAHPVGAFVEQRQGLSDDQILALQKKWNEGIYARIQGTRWFLFSKDTPAVTSLLLVPDLP | -0.555
HMEPMLEIFDAKIDLADVLAVESGLVRLRGGAEVTSPRVDVDAGARLELDSGARLNVERLSY | 0.0258
HMTPVFGEEETVLQAAVRGIISDTDQWTMEAEAKSMLNQLGFSDYEEKMAHMSGGQKKRVALVNALLTP | 0.0128
HMDFTPDQIARLDDIISRYKDKPGGLIPVLEEAQVALEYLPIGVQKRIAKGLNLPLSRVYGVVTFYSFFTM | -0.0911
HMDFDVELTSAGTAKVKVIKAVREATGLGLKEAKDLVDNAPSIVKEGLDEAAANDLKAALEETGASVTL | 0.117
HMLLREKLESVLPFISVSALAKTYFKRSPQWFYQRLNGSIVNGKPIRFNDAELKTLAGALTDIGKKISQAA | -0.322
HMQETPAMLAMKELPTEDEQRIYMMLQEDYDSVLLVKTIRNAFSQNPQLTRQQLLPIILTWLMT | -1.14
HMNSLQNNLKQARTRVGLTQGVLASQAGISRQAYSTLESGSANPSTEVALRLAQALQERVELLFYLPER | -0.705
HMEQVQQIPIEELFPFKEHPFKVLDDEAMQRTVESVAQYGVLAPLIARPRPEGGYEIISGHRRQHAAELYR | -0.0852
HMSLSNMIGKNIQWTHVTKTKDAEGNPKTNSETFAGNVRGVKVLNGKPMVVAQDAKGKLHEVEVSEIEAIA | 0.234
HMNIDQAFISDLERMIMPDISKYELMDIISIMENSGFTIKVEGTGNEVRQVIKPGSKLKKGQKIKIKL | -1.83
HMESVTETFLTNLINRYIADKAGYIISYPSEYRIEVLYHGGQVLDYENLRKSINTYIPAHIGYKLVTI | -0.112
HMQYKTRVINLSILEVGMVLGRDLINKDGKIIVKKDVAISDFLKDHLIGLSKIKEIEPQIYIKV | -1.08
HMSETAEFIIQVNGKVRAKLQLPTDISKEEIQKLALADENVQKYLNGEPRKIIFPPNTRLVSIV | -0.0471
HMMKLSKRQEQIIAVVKEHQPVSGERISDILAVSRATLRSDLSFLTLSGILKASPKVGYTYES | -1.12
HMQTKMVYSDLVNSIKSEQVSSMLVSGNTVTVTLTNGDKAKVKIPSLDTLQADVGKEMNDQMDKGTLKQE | 0.181
HMQRDTIAISAIPTAIKTYLSSTYPTDTLVHAFVNKDQSIVVISKNIDFYATSFSTANAFIKRIQLPA | -1.03
HMLEQEDMYGYQMIETLRERSEHSFDLKAGTLYPLLHALEQKGLITARDEASAAGRPRRYYHLTDAG | -0.144
HMVTDTGEIEAIIDRVISENPDSVSDFKNGKERALKFLMGQAMKESKGKANPQIVNELLLKKL | 0.264

Sequence | soluble fraction (log2)
HMASSRPLAEGDFVRLRAGGATGRIESIKGQKATVQMGGLKVHAPLRDLLPVAEPIKQVSTASNT | 0.0407
HMSSTPEPPQAVLDLVNLREQARAGKDWTQSDAFRQQIAALGWTVKDTKDGPVVSLSPTTTE | 0.0968
HMKKYLNIYNIIVNKIESKEYQSNDKLPSEKELMDQYNVSRDTVRKSLNMLEQNGYIQKTKGKGSFVLDIN | -0.634
HMPKSKTPDDAAEEFRTAFSALDMDGKVTVKDMAEYMGVIDKTVYARLKKMGDEFTLDKGVITKKT | -0.0532
HMRLSPTMVETLIAMLNRNAYPAYENNSRTFASLEERGLIQPDIEGNWSLTDTGHQTALKLLK | 0.0915
HMGIILDWELFEQFADKLKRKKVDFVIEPYLRFEGRRGEQSTLFIKDPSGNYLEFKAFKNIDMLFEK | -0.874
HMDIKEIIKNRRIELGLTLKEVATAVGVSEGTVSRWESGNITNMKRNKIAALAKTLQIPPTTI | -0.259
HMTTQERVSYSAFINDVETGRVAKVVISGYTIEGTRTNNSSFVTERPYGVDSNLSEVLMQNSVSIEGKA | -0.129
HMTNNDIIRRVRYLFNFSDKQVIELFKLANETVSIEHVSGWLKKEEDPTLIEISDRDLAVFLNGLII | 0.237
HMSATEPVHFDPNKSPEDMTVEELQAGILAKMANNGPVSDQMKKTVNENIWHDSLVNWLKSF | 0.0373
HMNLEIGAIIKSLRAKHKYTQEQLSAFLGVTPQAVSRWEAGNGYPDIELLPAIARFFEVSTDELLGL | -0.428
HMNTWVEIFRAEDQGQIRDASLVLLAVKVAHRVDMNSSSAPWSLMVPAQDQQRAHHELTTYWQENAH | -1.43
HMNGELSQRQWQILRLIAQGLSNEQMARQLFVAPSTIKTHINHLYAKLGVRTRAEAQAIARQKLMA | -0.619
HMYMKGKVKWFDSKKGYGFITSENGKEIFVHFSGIAAKGFKSLNEGQTVEFEVANGAKGEQAVNVTV | -0.804
HMGTTAWISTKTANGSVNIRTGPGTGYGVIGWALNGDKLEVLSRGTSWHYVKLVKNGKIGYVSASYVSFTQ | -0.193
HMAEWLLVQLTNGNWFYGEVIEKTDATIVLNTDILGKVSIQKLDIRRSISGPLTAAKRQEIEDSERAKD | -0.0179
HMLKDGPIGAYADSVIRDIIEKMERFSKEHINVDMLKIHEKIMLIDEPIIRMALLDEFHRVSHDN | -2.09
HMSTTDGIERFLASGAVKGIGRTMAARIVEHFGSRTLTVMESEPERLTEVAGIGRKKAESIAASYAELS | -0.156
HMGETAFRYALPLDQGEALKRSHVIRQSISPDDALATRVTVLEDVLDQTLRQPVQAGEVLLEDHFTR | -0.00712
HMFGDQMQSYLSRLSQIDVDIIALKYGDNFTYREIGLILEMSEDSVRQRAVRARKKLETMIQKG | -3.1
HMDKFKDVGARIREARKVQKLSQADLAERLQISTSHMSDIENGKKNIGLDIFMRLTEALQVSADWLL | -0.124
HMDINIETLNYYVGKAKIPLSELRISVKNIDLFLSGEKQPTFNQLSSIAKKLNIPTGLLLLDESIEV | -2.74
HMAADLIGLEARVTLPLTEDQRGFIETSVRGSLVRRAALSASGRLDRGQRVVILRSEGTTLIVDAL | -0.844
HMRMDKHLWLSLLRLINEGSAEELQTKKDELLQSLERLRITRGPVRGDVLRVVRLIDEELVSRLHLDQR | -2.29
HMYLPGERMRIKITALGSNPKQGVGYLPDGMMVVVDEAATLVGRFVEIEFVKFLQTNSGRMMFAKVAT | -0.224
HMGMEENLLKERKQILMDIMKSKEYQPMKVKELAMVLNVPKEDREELRYVLNELMNEGKIVESKKGKFSIA | 0.177
HMQDYYTQSDFARYLEDKGIHFPQNKIAVYRKRGKFPKEDLVVAGTPYWSKYTVESFAKHLLEQQN | 0.0719
